Test results taken from paper PMC7207076 (Biochemistry, 2020).
Non-standard residues stand in square brackets, D forms with d. No end group written: not given here. Lys(Me3) = C[N+](C)(C)CCCC[C@H](N)C(=O)O

What was measured:
KDM5A1–797 [1] = biological target: T1, KDM5A1–797 (Homo sapiens, UniProt P29375); type: biochemical; conditions: for kcat: 21mer H3K4me3 peptide substrates, saturating (20 μM) effector peptide (unmodified H3 10mer, aa 1–10), means ± SEM of two independent experiments, SEM; for fold increase of KMapp relative to 21mer WT peptide: 21mer H3K4me3 peptides, PHD1 domain saturated with effector peptide; for fold increase of KMapp compared to the 18mer WT peptide: H3K4me3 basic patch (K14-K18) deletion/mutant/acetylated peptides
T1 sequence (P29375 1-797): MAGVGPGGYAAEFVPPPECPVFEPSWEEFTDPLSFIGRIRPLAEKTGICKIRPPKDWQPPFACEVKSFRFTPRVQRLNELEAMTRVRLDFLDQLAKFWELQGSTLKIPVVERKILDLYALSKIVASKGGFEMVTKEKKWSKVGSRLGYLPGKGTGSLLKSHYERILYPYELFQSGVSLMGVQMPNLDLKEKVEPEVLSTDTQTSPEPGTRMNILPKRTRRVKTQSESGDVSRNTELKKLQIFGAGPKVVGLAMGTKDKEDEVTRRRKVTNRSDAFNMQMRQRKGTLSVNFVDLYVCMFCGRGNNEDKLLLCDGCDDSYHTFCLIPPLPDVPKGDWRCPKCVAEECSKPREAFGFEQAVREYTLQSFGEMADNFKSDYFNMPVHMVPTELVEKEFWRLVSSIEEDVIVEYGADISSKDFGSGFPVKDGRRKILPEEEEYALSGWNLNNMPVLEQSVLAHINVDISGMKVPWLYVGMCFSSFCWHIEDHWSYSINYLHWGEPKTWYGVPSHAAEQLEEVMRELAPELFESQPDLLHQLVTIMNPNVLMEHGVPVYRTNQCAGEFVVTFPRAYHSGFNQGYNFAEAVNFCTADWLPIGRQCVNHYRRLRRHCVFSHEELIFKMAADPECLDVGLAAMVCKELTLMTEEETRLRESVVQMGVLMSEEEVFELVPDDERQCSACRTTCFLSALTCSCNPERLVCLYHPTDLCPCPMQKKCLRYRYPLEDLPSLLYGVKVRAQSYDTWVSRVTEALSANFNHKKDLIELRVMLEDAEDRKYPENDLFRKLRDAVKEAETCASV

KDM5A1–797 [2] = biological target: T1, KDM5A1–797; type: biochemical; conditions: for KDM5A1–797 activity normalized to the 18mer WT peptide reaction (100%): H3K4me3 basic patch mutant/deletion peptides

Substance	kcat (KDM5A1–797 [1]) [s⁻¹]	fold increase of KMapp relative to 21mer WT peptide (KDM5A1–797 [1])	other results
K9A: 21mer H3K4me3 peptide with K9A mutation	0.061 ± 0.002		
R8A: 21mer H3K4me3 peptide with R8A mutation	0.054 ± 0.002	~ 4 fold	
R2A: 21mer H3K4me3 peptide with R2A mutation	0.069 ± 0.002	~ 12 fold	fold rescue in demethylation in the presence of the effector peptide (KDM5A1–797 [2]; 20 μM effector (unmodified 10mer H3 peptide), 21mer H3K4me3 mutant peptide): ~ 3 fold
T6V: 21mer H3K4me3 peptide with T6 mutated to valine	0.050 ± 0.003	3 fold	
18mer-K14A/R17A/K18A: 18mer H3K4me3 peptide, K14A/R17A/K18A triple mutant (ART[Lys(Me3)]QTARKSTGGAAPAA; UniProt P68431 2-19, looked up, variant K14A R17A K18A)			fold increase of KMapp compared to the 18mer WT peptide (KDM5A1–797 [1]): 8 fold; KDM5A1–797 activity normalized to the 18mer WT peptide reaction (100%) (KDM5A1–797 [2]; two independent experiments): 28%−35%
WT: H3 N-terminal 21mer (aa A1-A21) H3K4me3 wild-type peptide substrate	0.052 ± 0.001		
T6S: 21mer H3K4me3 peptide with T6 mutated to serine	0.070 ± 0.002		
T3A: 21mer H3K4me3 peptide with T3A mutation	0.056 ± 0.001		
T6A: 21mer H3K4me3 peptide with T6A mutation	0.075 ± 0.004	~ 8 fold	
H3K18me3 (aa 12—32): H3 peptide aa 12—32 trimethylated at K18			demethylation of H3K18me3 peptide by KDM5A1—797 (KDM5A1–797 [2]; peptide incubated with KDM5A1—797 (Figure S3)): no demethylation was detected
13mer: 13mer H3K4me3 peptide lacking the K14-K18 basic patch (ARTKQTARKSTGG; K4me3; UniProt P68431 2-14, looked up, fragment)			fold increase of KMapp compared to the 18mer WT peptide (KDM5A1–797 [1]): 8 fold; KDM5A1–797 activity normalized to the 18mer WT peptide reaction (100%) (KDM5A1–797 [2]; two independent experiments): 28%−35%
Q5A: 21mer H3K4me3 peptide with Q5A mutation	0.056 ± 0.003	> 30 fold	KDM5A1–797 activity normalized to the 21mer H3K4me3 WT peptide reaction (100%) (KDM5A1–797 [2]; 21mer H3K4me3 alanine mutant peptides, two independent experiments): ~ 20%
